Test results: US20050002904A1, “Uses of vascular endothelial growth factor and type I collagen inducible protein (VCIP)” (priority 2003, published 2005)
Where a chain is given by its changes, count along the chain named. Values belong to the binder of their own block, whether it stands above or below them.

Target: αvβ3 and α5β1 integrins presented on adjacent cells
Experiment: cell-based or functional assay

% cell aggregates of WT cells with … 10 nM: 67% | % cell aggregates of WT cells with … 30 nM: 46% | % cell aggregates of WT cells with … 50 nM: 28%
Binder: NYRCRGDDSK [peptide …]

% cell aggregates of WT cells with … 10 nM: 92% | % cell aggregates of WT cells with … 30 nM: 89% | % cell aggregates of WT cells with … 50 nM: 90%
Binder: NYRCRADDSK [mutant peptide …]

% cell aggregates, HEK cells stably expressing pLNCX2-VCIP-RGD (WT), no substance: 94%
B1: wild-type VCIP/PAP2b, HA-tagged, expressed from pLNCX2-VCIP-RGD, O14495 1-311 (protein)
chain: YPYDVPDYAYPYDVPDYAYPYDVPDYAMQNYKYDKAIVPESKNGGSPALNNNPRRSGSKRVLLICLDLFCLFMAGLPFLIIETSTIKPYHRGFYCNDESIKYPLKTGETINDAVLCAVGIVIAILAIITGEFYRIYYLKKSRSTIQNPYVAALYKQVGCFLFGCAISQSFTDIAKVSIGRLRPHFLSVCNPDFSQINCSEGYIQNYRCRGDDSKVQEARKSFFSGHASFSMYTMLYLVLYLQARFTWRGARLLRPLLQFTLIMMAFYTGLSRVSDHKHHPSDVLAGFAQGALVACCIVFFVSDLFKTKTTLSLPAPAIRKEILSPVDIIDRNNHHNMM

% cell aggregates, HEK cells stably expressing pLNCX2-VCIP-RGE (MT), no substance: 0%
B2: mutant VCIP/PAP2b-RGE, HA-tagged, expressed from pLNCX2-VCIP-RGE, O14495 1-311 (protein)
chain: B1 chain with D211E
